test: soluble on expression in E. coli; label from the status in PepcDB or PDB records

Sequence	soluble on expression in E. coli
MGSDKIHHHHHHMVLIRLRPCSAVEKDLIHACSPSASALVSKNEKAMKRFFLTTAILLSSVLASYADSLPSAVRDTVIRAGEKTIMIKDGEDDFEVIIQESMPSGDTIRNEKIFRGVYRNGRSIEQRFRNTLINRPNRDKEMPVWGTYGFGSFEWGELKVDDSHSDIGRSHSYRVSIQIFGDIYRLNKYLVLTYALGWDADIYRITDSKTLKNIDGVTTVVDVPGRAECTLTAAYLKAMPALAFNGVRSNLTVYIAPVLRAKVYSAATTDGPDGRLEKLRRVKLNTFSVEARAGINYRNAGIFFTYSLTPLFRSGKGPKLHPYTIGLSLSL	not soluble
MHTDINALFAALWQDYIQMTPSAAKVHELLGHGKPIINDHIALRTFNIAKVNLAVLAEHFTSLGYVACGDYKFEQKKLIAKHFEHPDATQPKVFISELLVEEFSSALQSTIQGLIAQVDEQATKADNFIYSGRHWTLDSKTYEALLEESEYAAWVAAFGYRANHFTVSINHLEGFDTLESVNDALKQAGFVLNTSGGEIKGSPEVLLEQSSTMADKIAVEFSDATVEIPSCFYEFALRYPKANGELYTGFVAASADKIFESTNAKKAAAALEHHHHHH	not soluble
MFNKVIMVGRLTRNVELKYLPSGSAAATIGLATSRRFKKQDGTLGEEVCFIDARLFGRTAEIANQYLSKGSSVLIEGRLTYESWMDQTGKKNSRHTITADSLQFMDKKSDNPQANAMQDSIMHENSNNAYPANH	soluble
MMRKVALFGFSLLLLAGCSSSDSSLPLFSSLPKGVTLVEEVKAEPGKVMIPYSKYRLDNGLTVILSPDDSDPLVHVDVTYHVGSAREEIGKSGFAHFFEHMMFQGSKHVGDQQHFRLITEAGGSLNGTTNRDRTNYFETVPANQLEKMLWLEADRMGFLLDAVSQRKFEIQRDTVKNERAQNYDNRPYGLMWEKMGEALYPEGHPYSWQTIGYVSDLDRVDVNDLKAFFLRWYGPNNAVLTIGGDLDVKQTLAWVQKYFGSIPKGPDVVDAPKQPARLSEDRFITLEDRVQQPMLLIGWPTQYWGAEDQVALDALASALGSGNNSLLYQELVKTQKAVDAGAFQDCAELACTFYVYAMAPSGAKGKLAPLYQETLQVLEKFKQQGVSASRLEQIIGSEEASAVFALESVKGKVSQLAANQTFFDQPDRIESQLEKIRAVTPESVKQVFTRYLDGQPKVTLSVVAKGKTDFAVRPATFITPERQLPEYQKIGDEQLAYREVKDSFDRSQMPQVAQAVQPRLPKLYDVYFDNGVQLLGTQTRETPTVLIEIQLPAGERQVAMGKEGLANLTASLLQEGSQNRSAEAIQAQLDKLGSSIQVVAGAYSTSIVVSSLKKNLPETLQISQEMLLKPAFKQSDFARLQQQMLQGVVYQHQQPSWLASQATRQVLWGESLFARSGDGTQASISALTLKDVKQFYRQHYTPHGAQIAVVGDISAREIRQQLQFIADWKGEAAPLINPQVVPTLTKQKIYLVDKPGAPQSIIRMVRKGLPFDATGELYLTQLANFNLAGNFNSRINQNLREDKGYTYGAGSYFASNREIGAIVFNAPVRADVTVEAIQEMIKEMHHFSQAGMSEEEMKFLRLAVGQQDALMYETPAQKAQLVSSILTYSLDRDYLQQRNEIVKSVDRSTLNELAAKWFNPEDYQIIVVGDAKRLKPQLEKLGIPLEELEIIR	not soluble
MGSDKIHHHHHHMLNDFVDRCVWAADLSAEQRDRVRRAMFVREYTQGDYVCHKGEIAEHWLGVLEGIVKITTVSPSGKSVTFTGVPTGGWFGEGAVLKSEIRKYDVMALRRSTIAFLPRDTFQWLLDTSLPFTRFLLTQFNERLGQFIAAVEYERLLDIDSRVARAVSSLFNEHLYPGIGNTLEISQEEIGLLAGISRQRANQALKVLEQQGLVRVDYGVIEVLDLEGLRQYGE	not soluble
MSAEVTLHDNIHYDLSADCQHCFGLCCVALPYAKSADFAFDKDGGTPCRNLQSNYQCSIHKDLREKGFRGCSAYECFGAGQKVSQITYEGKDWRNSPETANQMFDVFPIMQQLHEMLWYLHEALSIDIAKPIHSELRTTFEKIERLTRLSKERLLTLQVDEHRAEVNEWLLKTSELVRAQARHPKLPKKVSRGSVLIGAKLKGLDLRGANLRGALLIAADLRNADLRMTDFIGADMRDADLSGADLTGSIFLTQAQVNAANGDSNTKLPLSVRTPAHWKLEHHHHHH	not soluble
SLMVPVEIRWQQGGSKVYVTGSFTKWRKMIGLIPDSDNNGSFHVKLRLLPGTHRFRFIVDNELRVSDFLPTATDQMGNFVNYIEVRQPEKNPTNEKIRSKEADSMRPPTSDRSSIALQIGKDPDDFGDGYTRFHEDLSPRPPLEYTTDIPAVFTDPSVMERYYYTLDRQQSNTDTSWLTPPQLPPQLENVILNKYYATQDQFNENNSGALPIPNHVVLNHLVTSSIKHNTLCVASIVRYKQKYVTQILYTPI	soluble
MCDISTEDQLLEFARKAAESGDQTQTFEFKKHIGFLIRHLNVFPQPYNTLETSRNTIFLFAISSLDLLGELDNLLTPERRQAYIDWIYGLQFTNGNVCGFRGSHSCENSGYDEANLAQTYSALLSLAILGDDLKKVDRKAILKTVKTAQRDNGCFWSQGVGSESDMRFVFCAVAISHILDGDKEQTIDWTKLAGFLRQSLNIDGGIGQAPGDESHGGSTFCAIASLALSNRLWTEEVLTRRDIDRLIRWAIQKQDIGFHGRAHKPDDSCYAFWIGATLKILNAYHLVSKQHLREFLMICQHPHIGGFCKYPEPGGYSDILHTYFSIAALSLLGEPAVNPVHPSLNVSMRVAERIARLQFD	not soluble
MAHHHHHHMRTDKCVSEAVQTFREAQNLLPTLYTHLSALENIMTQKGALVGAARRREQCFAKALPASHFLCMDTGTEERTLPQATTAGPSCVHTTSPVMTSPLGVLAAFSASTVHHLVAQHQRDVEELLGVVSRITQRSWSQKVEQLKSKIAQLERASEVGETPEHPPSAGGIVAVSSTPASSSYFATASELSVALYGFAACLLKMGNVLQETMLALRKDARLSLMAHAAPGSAALLTSTSADTASHLAAMLAREDRTSEGMSLLPMHSSHCGSLHEATSASSPFSGAAGVQAAPLQPMRLVDAVGKLKSFLEARWKSCCDSYLAPESHLLLALV	soluble
MEERDSETGWRGSREGWLQAAYEALIEGGVESVKIMTLAARLKLSRTSFYWFFKDRADVLDALRSQWAGTTTAPLVAASAEYAESRAEAMLNVLACFLSGRFDARFEFAARSWGLQDPAMAAAVEAADAERLAALTDMLARWGHDPQEADVRARTVYLVQIGYISMRAEETLETRLARIPNYVEIYTGVRPEPREMARFRARLGLAV	not soluble
SNAIFMDYYENRKVMAEAQNIYEKSPMEEQSQDGEVRKQFKALQQINQEIVGWITMDDTQINYPIVQAKDNDYYLFRNYKGEDMRAGSIFMDYRNDVKSQNRNTILYGHRMKDGSMFGSLKKMLDEEFFMSHRKLYYDTLFEGYDLEVFSVYTTTTDFYYIETDFSSDTEYTSFLEKIQEKSLYKTDTTVTAGDQIVTLSTCDYALDPEAGRLVVHAKLVKRQ	soluble
MSSSGPTRSISTGTKPPTESLYKREVAQMMQQHQQQQRINNNKGYRPQGASPPKELKRRFYDDGSVTPSSRQSRNERSMDGRPSPEHGAIIGENRKSSPPAEEKYSNSGTRCKLPIPDMFRFYDKEMANEKLESLGLADEDDKKTLTKMRRHSIWMDNQLLNQLQASESNKQYLSAKKQMRDILITRIDHIDNAHKNVNSLFVHDFVHDYIILFKNKVSKSEKFLLCLKKINN	not soluble
AHHHHHHGSVERSKVRVLIAKPGLDGHDRGAKVVARALRDAGYEVIYTGIRQTPEQIVEAVIEEDVDVLGISILSGAHMVLIPKILKLLEEKGIKPGEDILVVAGGIIPPDDAEELKKMGVAEVFGPGTPLKTIIEFIDKNVEKLKKFRSST	soluble
DVLAVTSCPSGVAHTFLAAKSLEKAACALGIKIKVETQGANGVINRITEKDIEKAKFVIFAHDVAIKEPERFRKIKVLDVTTKDAMLNATALLQARRVS	not soluble
MGSDKIHHHHHHMKIGIDGRAAKWYRGTGIGTYTYQLISHINKLDEANDYTIFLPDSSNLNFKLKNNFSLKSINCTAKNNFWDQVNIPNIIKKDDTELYHVPQNGIGLPYNKNCRFTITLHDIIPYKMPETVGKKYLKIFEEEIPKIIPLCDGIITVSDFSKKDISEFFNYPESKIYVTYLSAEDIYRPIEKCISKDIIKNLYGIDKNYILYVGGFSPRKNISGIIHAFSKLKKTTKTNLKLIIAGKKGLSYPNYVDIAKKLNVSSDVIFPGFIPLEYMPFLYNAAEFLIYPSFYEGFGLPPLEAMACKVPVITSNITSLYEIFNGCALIVNPYDVEKIKDAMEIMYFDSSVRKIYSEKGFEFSKKLTWNSTAISTIKAYEKISKN	not soluble
PLKIGPPGHRYAFPLYSSKNLERDDLRGIRRLVIVLHGVKRNAASIHGTVTALFAANPERAEDTLVIAPKFASAIDAGFAAMPAWRRASWEDGELSMQARGRPAPVSSLQVLDDLLRELSDSSRLPALRTIVLAGHSGGAQLVQRYAVLNSLDETL	not soluble
QCTNGFDLDRQSGQCLDIDECRTIPEACRGDMMCVNQNGGYLCIPRTNPVYRGPYSNPYSTPYSGPYPAAAPPLSAPNYPTISRPLICRFGYQMDESNQCVDVDECATDSHQCNPTQICINTEGGYTCSCTDGYWLLEGQCLDIDECRYGYCQQLCANVPGSYSCTCNPGFTLNEDGRSCQDVNECATENPCVQTCVNTYGSFICRCDPGYELEEDGVHCSDMDECSFSEFLCQHECVNQPGTYFCSCPPGYILLDDNRSCQDINECEHRNHTCNLQQTCYNLQGGFKCIDPIRCEEPYLRISDNRCMCPAENPGCRDQPFTILYRDMDVVSGRSVPADIFQMQATTRYPGAYYIFQIKSGNEGREFYMRQTGPISATLVMTRPIKGPREIQLDLEMITVNTVINFRGSSVIRLRIYVSQYPF	soluble
MGSLGFLAGGVMPLEQLKQELSEVKGVFGVNLFRPQTDAPKPSDIDELAGLLSSAFRQFGLDEPTVPTPDLSNGWEAKFEAVLAAKPAVFSCTFGIFSAEEFARIKATGIEAWVTVTNPEDALAAQKAGANALVVQGPEAGGHRSTWSIEVEPDERDLKTLLAAVKQAGVYLPLIAAGGLSTSADVAAILEAGASAASCGSAFLLSDEAGTSSLNREILDAAPALGLESVSSRAFSGRYARGVETRFTRSNEGLPPLYPYLNPMITSLRKVAGSAGNWDYAYCLVGVGLESIAKGSAKQILESLTPSALEHHHHHH	not soluble
MFLPVLDSLPSDYDLLRKTYSRMKLEWSTHDLISHCVQEEERLTNEKKEHDLVAGKVICDKKRKQYDECLEAVLGN	soluble
MGSDKIHHHHHHMMEYWIRRALEVVKTPFLLFDLSVVEKKYLEMKAALKKADIYYAVKANSHPRIISLLARLGSNFDVASKGEIEKLLALGVDGKRMSFGNTIKREEDIAFAYKNGIRLFAVDSEMEVEKVAINAPGSFVFVRVETDGADADWPLSRKFGTNPEHALQLLSYASKMKLIPAGLSFHVGSQNLNPESWKKAIEIAGRVFKKAMRSGLNLFLLNVGGGFPVQHTKPIPSMEEIGKAIEEAIDENLWFVHNLKVIAEPGRYMVGEAGWLVTKVLLKSERSGEKWVYIDAGVFHGLAETIQNFEYEIRVLGKEREELEEYHLAGPTCDSVDVIYDRIFLPKSITLNDLVCFINAGAYTVEYNTRFNGIEPPKMVFIEELTEISIEEKIKTRVLD	not soluble
MKFAVIVFPGSNCDVDMFHAIKDELGEEVDYVWHDTENLDEYDAILLPGGFSYGDYLRCGAISRFANAMKAVQKAAEQGKPILGVCNGFQILVESGLLPGALIRNENLKFMCRTVQLRVENNETMFTSQYEKDEIINIPIAHGEGNYYCDEATLKQLEENNQIAFRYVENPNGSVSDIAGIVNEKGNVLGMMPHPERAVDELLGGAEGLKVFQSILKQWRETYVVNA	not soluble
